Laboratory results as given in patent publication US20100160234A1.

Target: Native eIF4E of High Five (Trichoplusia ni) insect cells (Trichoplusia ni)
Test: cell-based or functional assay

B1: his-tagged PVY VPg protein (protein, not shown: small tags and cut ends)
chain: GKNKSKRIQALKFRHARDKRAGFEIDNNDDTIEEFFGSAYRKKGKGKGTTVGMGKSSRRFINMYGFDPTEYSFIQFVDPLTGAQIEENVYADIRDIQERFSEVRKKMVENDDIEMQALGSNTTIHAYFRKDWSDKALKIDLMPHNPLKVCDKTNGIAKFPERELELRQTGPAVEVDVKDIPAQEVEHE
eIF4E in cytoplasm (%), 12 h p.i., cell fractionation, Western blot and densitometry: 53.5% | eIF4E in cytoplasm (%), 24 h p.i., cell fractionation, Western blot and densitometry: 81.3% | eIF4E in cytoplasm (%), 36 h p.i., cell fractionation, Western blot and densitometry: 83.3% | eIF4E in cytoplasm (%), 48 h p.i., cell fractionation, Western blot and densitometry: 74.1% | eIF4E in nucleus (%), 12 h p.i., cell fractionation, Western blot and densitometry: 46.5% | eIF4E in nucleus (%), 24 h p.i., cell fractionation, Western blot and densitometry: 18.7% | eIF4E in nucleus (%), 36 h p.i., cell fractionation, Western blot and densitometry: 16.7% | eIF4E in nucleus (%), 48 h p.i., cell fractionation, Western blot and densitometry: 25.9%
